In the nanobody polyreactivity screen of Harvey et al. (2022):

Test: yeast display, Sf9 membrane polyspecificity reagent, FACS + sequencing; frameworks hold sequencing errors
Procedure, shortened: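 A synthetic nanobody library was expressed on Saccharomyces cerevisiae BJ5465 by galactose induction for 36–48 hours. The library was stained for 1 hour at 4 °C with 10% biotinylated, detergent-solubilized Sf9 membrane reagent and enriched with streptavidin microbeads before FACS. Low and high (top ~1%) gates were set on anti-HA fluorescence for expression and streptavidin fluorescence for reagent binding, and each polyreactivity label reflects the gate of origin.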

Sequence	polyreactivity (PSR sort gate)
QVQLVESGGGLVQAGGSLRLSCAASGSTFRRNAMGWYRQAPGKERELVAAISTSGGTTYYADSVKGRFTISRDNAKNTVYLQMNSLKPEDTAVYYCNKGGISGRDYWGLGTQVTVSS	high polyreactivity
QVQLVESGGGLVQAGGSLRLSCAASGSTFRRNAMGWYRQAPGKERELVARISYRGGSTYYADSVKGRFTISRDNAKNTVYLQMNSLKPEDTAVYYCAARVYGVPEYDYWGQGTQVTVSS	low polyreactivity
QVQLVESGGGLVQAGGSLRLSCAASGSTFRRNDMGWYRQAPGKERELVAAITSGGITNYADSVKGRFTISRDNAKNTVYLQMNSLKPEDTAVYYCNKDSDLHHYHTEFDYWGQGTQVTVSS	low polyreactivity
QVQLVESGGGLVQAGGSLRLSCAASGSTFRRNTMGWYREAPGKEREFVAALSRRGGSTYYADSVKGRFTISRDNAKNTVYFQMNRLKPEDTGVYYCAAPGLSRLYNVYYWPYDYWGQGTQVTVSS	high polyreactivity
QVQLVESGGGLVQAGGSLRLSCAASGSTFRRYAMGGYRQAPGKERELVAAISRSGGTTYYADSVKGRFTISRDNAKNTVYLQMNSLKPEDTAVYYCNARYPVVRYDYWGQGTQVTVSS	high polyreactivity
QVQLVESGGGLVQAGGSLRLSCAASGSTFRRYAMGWYRQAPGKERELVAAISSGGSTYYADSVKGRFTISRDNAKNTVYLQMNSLKPEDTALYYCAKRPLKRQIPAVGYDYWGQGTQVTVSS	high polyreactivity
QVQLVESGGGLVQAGGSLRLSCAASGSTFRRYAMGWYRQAPGKERELVAAISWSGGSTYYADSVKGRFTISRDNAKNTVYLQMNSLKPEDTAVYYCAARGVTSYWQDYDYWGQGTQVTVSS	low polyreactivity
QVQLVESGGGLVQAGGSLRLSCAASGSTFRRYAMGWYRQAPGKERELVAAITRRGGSTYYADSVKGRFTISRDNAKNTVYLQMNSLKPEDTAVYYCNAVPVVRAGHGYDSWGQGTQVTVSS	high polyreactivity
QVQLVESGGGLVQAGGSLRLSCAASGSTFRRYAMGWYRQAPGKERELVAAITTNGGSTYYADSVKGRFTISRDNAKNTVYLQMNSLKPEDTAVYYCNARWPYRQRGYDYWGQGTQVTVSS	high polyreactivity
QVQLVESGGGLVQAGGSLRLSCAASGSTFRRYAMGWYRQAPGKERELVADIRGIGGSTYYADSVKGRFTISRDNAKNTVYLQMNSLKPEDTAVYYCNTSTLGGYYWGQGTQVTVSS	low polyreactivity
QVQLVESGGGLVQAGGSLRLSCAASGSTFRRYAMGWYRQAPGKERELVAGISYSGGRTYYADSVKGRFTISRDNAKNTVYLQMNSLKPEDTAVYYCAAKSFPSVRHHENYYWGQGTQVTVSS	high polyreactivity
QVQLVESGGGLVQAGGSLRLSCAASGSTFRRYARGWYRQAPGKERELVAAISTRGGSTYYADSVKGRFTISRDNAKNTVYLQMNSLKPEDTAVYYCAADEPKYTSSSSRRYGYWGQGTQVTVSS	high polyreactivity
QVQLVESGGGLVQAGGSLRLSCAASGSTFRSNAMGWYRQAPGKERELVAAITYSGGRTYYADSVKGRFTFSRDNAKNTVYLQMNSLIPEDTAVYYCAKVGWSRRYYYWGQGTQVTVSS	high polyreactivity
QVQLVESGGGLVQAGGSLRLSCAASGSTFRSYTMGWYRHAPGKEMELVARISRSGGSTYYADSVKGRFTISRDNAKNTVYLQMNSLKPEDTAVYYCAALYYVKPGQRYDYWGQGTQVTVSS	high polyreactivity
QVQLVESGGGLVQAGGSLRLSCAASGSTFRSYTMGWYRQAPGKERELVATIDWSAGNTRYADSVKGRFTISRDNAKNTVYLQMNSLKPEDTAVYYCNKDAGLWVSGTLYYWGQGTQVTVSS	low polyreactivity
QVQLVESGGGLVQAGGSLRLSCAASGSTFRTNVMGWYRQAPGKERELVAAITKRGSITYYADSVKGRFTISRDNAKNTVYLQMNSLKPEDTAVYYCAARKVAVRGYGYWGQGTQVTVSS	high polyreactivity
QVQLVESGGGLVQAGGSLRLSCAASGSTFRTYAMGWYRQAPGKERELVAAISGDTSTNYADSVKGRFTISRDNAKNTVYLQMNSLKPEDTAVYYCAAYWTTYATLWYDYWGQGTQVTVSS	low polyreactivity
QVQLVESGGGLVQAGGSLRLSCAASGSTFRTYAMGWYRQAPGKERELVAAISRSGGSTYYADSVKGRFTISRDNAKNTFYLQMNSLKPEDTAVYYCAARGGRGWTPSDYWGQGTQVTVSS	high polyreactivity
QVQLVESGGGLVQAGGSLRLSCAASGSTFRVYAMGWYRQAPGKERELVAAISGSGGSTYYADSVKGRFTISRDNAKNTVYLQMNSLKPEDTAVYYCAGRSWYTEYYWGQGTQVTVSS	high polyreactivity
QVQLVESGGGLVQAGGSLRLSCAASGSTFRVYAMGWYRQAPGKERELVAAISWSAGSTYYADSVKGRFTISRDNAKNTVYLQMNSLKPEDTAVYYCNADPDRYDWYTYLYLADYWGQGTQVTVSS	low polyreactivity
QVQLVESGGGLVQAGGSLRLSCAASGSTFRVYDMGWYRQAPGKERELVASLSYSVGSTYYADSVKGRFTISRDNAKNTVYLQMNSLKPEDTAVYYCAARPSYQPSSLARYDYWGQGTQVTVSS	low polyreactivity
QVQLVESGGGLVQAGGSLRLSCAASGSTFRVYGMGWSRQAPGKERELVAVIRWRGGRTSYADSVKGRFTISRDYAKNTVYLQLNSLKPEDTAVYYCARQRSYGRSSYSYGYDYWGQGTQVTVSS	high polyreactivity

Sequence	polyreactivity (PSR sort gate)
QVQLVESGGGLVQAGGSLRLSCAASGSTFRWNAMGWYRQAPGKERELVAAISNGGSTNYADSVKGRFTISRDNAKNTVYLQMNSLIPEDTAVYYCATDGWYGQHYYDYDFDYYYWGQGTQVTVSS	low polyreactivity
QVQLVESGGGLVQAGGSLRLSCAASGSTFRWYAMGWYRQAPGKERELVAAITSGGSTNYADSVKGRFTISRDNAKNTVYLQMNSLKPEDTAVYYCNKVYPVVRYEPQYDYWGQGTQVTVSS	low polyreactivity
QVQLVESGGGLVQAGGSLRLSCAASGSTFRYNAMGWYRQAPGKARELVAAITSGGGTNYADSVKGRFTISRDNAKNTVYLQMNSLNPEDTAVYYCAAPWGLGSELLKRDYWGQGTQVTVSS	low polyreactivity
QVQLVESGGGLVQAGGSLRLSCAASGSTFRYNAMGWYRQAPGKERELFAAISFSGGSTYYADSVKGRFTISRDNAKNTVYLQMNSLKPEDTAVYYCAARWSSWPSYLAVPRLYYWGQGTQVTVSS	high polyreactivity
QVQLVESGGGLVQAGGSLRLSCAASGSTFRYNAMGWYRQAPGKERELVAAISRIGGTTYADSVKGRFTISRDNAKNTVYLQMNSLKPEDTAVYYCARANWGYYGPEYGYWGQGTQVTVSS	low polyreactivity
QVQLVESGGGLVQAGGSLRLSCAASGSTFRYNAMGWYRQAPGKERELVAAITSGGRTTYADSVKGRFTISRDNAKNPVYLQMNSLKPEDTAVYYCAARRYGRNWHYDYWGHGTQVTVSS	high polyreactivity
QVQLVESGGGLVQAGGSLRLSCAASGSTFRYNAMGWYRQAPGKERELVAAITSGGTTNYADSVKGRFTISRDNAKNTVYLQMNSLKPEDTAVYYCNAYVAYWGWVYRVDYWGQGTQVTVSS	low polyreactivity
QVQLVESGGGLVQAGGSLRLSCAASGSTFRYNAMGWYRQAPGKERELVAGISYRGGTTYYADSVKGRFTISRDNAKNTVYLQMNSLKPEDTAVYYCAAAASSPGGWFYYWGQGTQVTVSS	high polyreactivity
QVQLVESGGGLVQAGGSLRLSCAASGSTFRYYAMGWYRQAPGKERELVAAISGSGGRTYYADSVKGRFTISRDNAKNTVYLQMNSLKPEDTAVYYCAASRYQFYWGQGTQVTVSS	high polyreactivity
QVQLVESGGGLVQAGGSLRLSCAASGSTFRYYAMGWYRQAPGKERELVAAISRSGGRTYYADSVKGRYTISRDYAKKTVYLQMNSLKPEDTAVYYCAVDIVSIRGYTYGYWGQGTQVTVSS	high polyreactivity
QVQLVESGGGLVQAGGSLRLSCAASGSTFRYYAMGWYRQAPGKERELVAAISWGAGSTYYADSVKGRFTISRDNAKNTVYLQMNSLKPEDTAVYYCNTLQITGWYDYWGQGTQVTVSS	high polyreactivity
QVQLVESGGGLVQAGGSLRLSCAASGSTFRYYAMGWYRQAPGKERELVAAITFDGGTTSYADSVKGRFTISRDNAKNTVYLQMNSLKPEDTAVYYCAREGRTYWSKSISPYWRYGYWGQGTQVTVSS	high polyreactivity
QVQLVESGGGLVQAGGSLRLSCAASGSTFRYYAMGWYRQAPGKERELVAAITTSGSRTYYADSVKGRFTISRDNAKNTVYLQMNSLKPEDTAVYYCAKDGWRYSQSLDWYRFGYWGQGTQVTVSS	high polyreactivity
QVQLVESGGGLVQAGGSLRLSCAASGSTFRYYAMGWYRQAPGKERELVARISWRGGSTYYADSVKGRFTISRDNAKNTVYLQMNRLKPEDTAVYYCAAVRWVRYRTSAYEYWGQGTLVTVSS	high polyreactivity
QVQLVESGGGLVQAGGSLRLSCAASGSTFRYYAMGWYRQAPGKVRELVAAITSSGTSTYYADSVTGRFTISRDNAKNTVYLQKNSLKPEDTAVYYCAAPPVYKWVSSRYDYWGQGTQVTVSS	low polyreactivity
QVQLVESGGGLVQAGGSLRLSCAASGSTFSANTMGWYRPAPGKERELLAAISSSGVGTRYADSVKGRFTISRDTAKNNVYLQMKSLKPEDTAVYYCAADYRPTVITRNDYWGQGTQVTVSS	low polyreactivity
QVQLVESGGGLVQAGGSLRLSCAASGSTFSAYAMGWYRQAPGKERELVAAITRSGGSTYYADSVKGRFTISRDNAKNTVYLQMNSLKPEDTAVYYCAVRGYLLYYPPYKYEYWGQGTQVTVSS	high polyreactivity
QVQLVESGGGLVQAGGSLRLSCAASGSTFSDYAMGWYRQAPGKERELVAGITGGGGTYYADSVKGRFTISRDNAKNTVYLQMNSLKPEDTAVYYCAAGRRHGFGYWGQGTQVTVSS	low polyreactivity
QVQLVESGGGLVQAGGSLRLSCAASGSTFSEYAMGWYRQAPGKERELVAAISETGGRTYYADSVKGRFTISRDNAKNTVYLQMNSLKPEDTAVYYCAVDHLTRSGDGEYWGQGTQVTVSS	high polyreactivity
QVQLVESGGGLVQAGGSLRLSCAASGSTFSFNAMGWYRQAPGKERELVAAITGGDGTNYADSVKGRFTISRDNAKNTVYLQMNILKPEDTAVYYCAAYQWGSTEDYWFTYGYWGQGTQVTVSS	low polyreactivity
QVQLVESGGGLVQAGGSLRLSCAASGSTFSFNDMGWYRQAPGKERELVADISWSGDTTYADSVKGRFTISRDNAKNTVYLQMNSLKPEDTAVYYCNAEGFSIAFYANWVVQWEFDFWGQGTQVSVSS	high polyreactivity
